In publication doi:10.1101/2025.07.24.666634 (bioRxiv, 2025):

Target: the molecule itself
Assay: cryo-EM structure; blot-and-plunge, dGTPase 3 mg/mL on UltrAuFoil R1.2/1.3 Au300; single-particle analysis, D3 symmetry

B1: Escherichia coli dGTP Triphosphohydrolase (enzyme, UniProt P15723 1-505, looked up)
chain: MAQIDFRKKINWHRRYRSPQGVKTEHEILRIFESDRGRIINSPAIRRLQQKTQVFPLERNAAVRTRLTHSMEVQQVGRYIAKEILSRLKELKLLEAYGLDELTGPFESIVEMSCLMHDIGNPPFGHFGEAAINDWFRQRLHPEDAESQPLTDDRCSVAALRLRDGEEPLNELRRKIRQDLCHFEGNAQGIRLVHTLMRMNLTWAQVGGILKYTRPAWWRGETPETHHYLMKKPGYYLSEEAYIARLRKELNLALYSRFPLTWIMEAADDISYCVADLEDAVEKRIFTVEQLYHHLHEAWGQHEKGSLFSLVVENAWEKSRSNSLSRSTEDQFFMYLRVNTLNKLVPYAAQRFIDNLPAIFAGTFNHALLEDASECSDLLKLYKNVAVKHVFSHPDVERLELQGYRVISGLLEIYRPLLSLSLSDFTELVEKERVKRFPIESRLFHKLSTRHRLAYVEAVSKLPSDSPEFPLWEYYYRCRLLQDYISGMTDLYAWDEYRRLMAVEQ
notes: also called dGTPase; E. coli dGTPase
binding result: binds
